Measurements as given in the supplement of paper PMC9170038.

How the values were obtained:
MS2 coat protein [1] = assay: apparent KD of MS2 coat protein, switch OFF state (with FMN for OFF switches, without FMN for ON switches); designed switch direction (-1 OFF switch, 1 ON switch): -1; higher = weaker reporter binding; details: FMN input: 0 or 200 uM; Eterna round: R93 (includes R88 designs)
Procedure, shortened: (§1)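 Normalised binding curves from single clusters were fitted, and the median fit for each design is given as apparent KD. The clusters held designed RNA switches transcribed on-chip from Illumina sequencing clusters. These were titrated with SNAP-549-labelled MS2 coat protein (twofold steps from 0.7 or 1.5 nM to 3 µM, 0.8–1.5 h to 10–20 min per step) in 100 mM Tris-HCl pH 7.5, 80 mM KCl, 4 mM MgCl2, without or with constant ligand.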

MS2 coat protein [2] = assay: apparent KD of MS2 coat protein, switch ON state; designed switch direction (-1 OFF switch, 1 ON switch): -1; higher = weaker reporter binding; details: FMN input: 0 or 200 uM; Eterna round: R93 (includes R88 designs)
Procedure, shortened: as §1

Sequence	apparent KD of MS2 coat protein (MS2 coat protein [1])	apparent KD of MS2 coat protein (MS2 coat protein [2])
AACAAGACAGGAUAUACAUGAGGAUCACCCAUGUCACAAUAAAGUAGCGUAACACAAAGUAGAAGGGUCAUGGA [Ruby 8]	50.4 nM	41.5 nM
AACAGGACAGGAUAUACAUGAGGAUCACCCAUGUAGGAAACAAGCAGAGUACCAAAAAGUAGAAGGGUCAUGGA [Ruby 30]	63.3 nM	38.8 nM
AACAGGUCAGGAUAUGUGGAAAAAAUAAAAAAAAAUAAAACACAGAAGGGACAUGAGGAUCACCCAUGUAAAUA [Mat - Exclusion 4 - Mayanna - D142]	59.2 nM	68.7 nM
AACAGGUCAGGAUAUGUGUAAAAAAUAAAAAAAAUAUAAACACAGAAGGGACAUGAGGAUCACCCAUGUUAACA [May 26]	35.7 nM	31.5 nM
AACAGUACAGGAUAUACAUGAGGAUCACCCAUGUGAAAAGAAAGUGGCGUACCACAAAGUAGAAGGGUACUGAA [Mat - Exclusion 3 - JL mod - D29]	135 nM	25.3 nM
AACAGUACAGGAUAUACAUGAGGAUCACCCAUGUGAAAAUUAAGUGGAAAACCACAGUGUAGAAGGGUACUGGA [Mat - Exclusion 3 - Eli mod - D53]	191 nM	47.5 nM
AACAGUACAGGAUAUACAUGAGGAUCACCCAUGUGAAAAUUAAGUGGGAGACCACAAGGUAGAAGGGUACUGGA [Mat - Exclusion 3 - Eli mod - D65]	57.7 nM	176 nM
AACAGUACAGGAUAUACAUGAGGAUCACCCAUGUGAGAAUUAAGUGGCGUACCACAAAGUAGAAGGGUACUGAA [Mat - Exclusion 3 - JL mod - D6]	97.3 nM	30.8 nM
AACAGUACAGGAUAUACAUGAGGAUCACCCAUGUGAGAGAAAUAAAACAAAAAUAAAAGUAGAAGGGUACUGGA [Moding Maslow revisited (73) 22]	43.3 nM	41.7 nM
AACAUGUAAGGAUAUCAAAGAAAAGAAAAGAAAGAAAAGAAUGAGAAGGUACAUGAGGAUCACCCAUGUAAGAA [EteRNA is fun!]	21.1 nM	27.9 nM
AACAUGUAAGGAUAUGCUGCUCGUCACGAAAGUGAUGAGUAGCAGAAGGUACAUGAGGAUCACCCAUGUAAAGA	156 nM	49 nM
AACAUGUCAGGAUAUGUACGAAAAAAUAAAAAAAUAAAAGUACAGAAGGGACAUGAGGAUCACCCAUGUCAAAA [EX4 394: Minimal 7]	47.4 nM	33.4 nM
AACAUGUCAGGAUAUGUACGAAAAAAUAAAAAAAUAAAAGUACAGAAGGGACAUGAGGAUCACCCAUGUCAGGG [EX4 393: Minimal 6]	20 nM	100 nM
AACCAACAUGAGGAUCACCCAUGUCAGGAUAUGCGUACAACAUACAACAUACAUCAAAGCAGAAGGGACACAAA [Amethyst 84]	23.6 nM	20.2 nM
AACGAACAUGAGGAUCACCCAUGUCAGGAUAUGCAAAGAACGAUCGAACGAACGAUAAGCAGAAGGGACAGAGA [Amethyst 97]	40.4 nM	27.7 nM
AACUGACAUGAGGAUCACCCAUGUCAGGAUAUGACAUCGAGAAAAAAAAAAAUCGUUGUCAGAAGGGACAUGAA [Design 78: Sub-opt T]	13.6 nM	12.4 nM
AAGAAACAUGAGGAUCACCCAUGUAAGGAUAUCUAAAAGAAAAGAAAAGAAAGAAGAAGGAGAAGGUACAAAGG [Sehertawy Intef I]	30 nM	26.1 nM
AAGAAACAUGAGGAUCACCCAUGUGAGGAUAUCGAAGAAAGAAAGAAAGAAAGAAGAACGAGAAGGCACAAAGG [Publius Octavius]	59.3 nM	42.7 nM
AAGAAACAUGAGGAUCACCCAUGUGAGGAUAUUGAAAAGAAAAGAAAAGAAAGAAGAACAAGAAGGCACAAAGG [Merenhor]	37.8 nM	39.4 nM
AAGAAAGCAGGAUAUACAAAAUAAAAGAAAAGAAAGAAAGAACAUGAGGAUCACCCAUGUAGAAGGGCUAAGAA [Khahotepre Sobekhotep VI]	32.3 nM	38 nM
